This assay concerns the target Dup A502,Y503 KIT D4D5 fragment (human) (UniProt P10721). Kind of assay: SEC-MALS.

Usually Kd stands for the constant that tells how readily two partners part at equilibrium. A lower Kd goes with tighter binding. Turning to “Dup A502,Y503 KIT D4D5 fragment (from UniProt P10721 308-514) (domain or fragment)”, the Kd came out at 730 µM.

The values are drawn from paper PMC4764128.
